Consider five molecules from patent US20150355199A1 (ROCHE DIAGNOSTICS OPERATIONS, published 2015).

Test [1] has as its target T1, CFHR2-GS-Avi-GS-His8 (human).
T1 construct: Tagged recombinant protein from HEK293 cells; also called recombinant CFHR2
T1 chain: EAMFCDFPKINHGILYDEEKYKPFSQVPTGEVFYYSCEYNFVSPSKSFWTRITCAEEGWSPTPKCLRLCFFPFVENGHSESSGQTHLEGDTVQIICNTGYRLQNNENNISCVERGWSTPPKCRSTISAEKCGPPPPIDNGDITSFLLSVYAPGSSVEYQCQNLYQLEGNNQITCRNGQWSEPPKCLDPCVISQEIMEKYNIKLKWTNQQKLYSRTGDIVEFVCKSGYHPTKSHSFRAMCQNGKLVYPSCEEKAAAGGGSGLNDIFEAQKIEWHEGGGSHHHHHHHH
In words: SPR (BiaCore), antibody captured by rabbit anti-mouse IgG on CM5 chip, antigen in solution. On the procedure:
(§1) The antibodies MAB<CFH/CFHR1>M-L20/3, MAB<CFHR1>M-442127, MAB<CFHR1>M-4.1.3 and MAB<CFHR1>M-5.1.5 were analyzed on the BiaCore. The chip CM5 coated with a rabbit anti-Mouse IgG was used to bind the purified monoclonal mouse antibodies. In the next step native CFH or the recombinant CFHR1, CFHR2, CFHR3, CFHR4B or CFHR5 proteins according to SEQ ID No.: 9 to 13 were added to determine the binding affinities of the different antibodies.
On the technique in general: SPR reads the build-up and loss of mass on a sensor chip optically.

The target of test [2] is T2, recombinant CFHR1-1-5 (tag-less, full-length mature human complement factor H-related protein 1) (human, UniProt Q03591 19-330).
T2 construct: also called recCFHR1
T2 sequence: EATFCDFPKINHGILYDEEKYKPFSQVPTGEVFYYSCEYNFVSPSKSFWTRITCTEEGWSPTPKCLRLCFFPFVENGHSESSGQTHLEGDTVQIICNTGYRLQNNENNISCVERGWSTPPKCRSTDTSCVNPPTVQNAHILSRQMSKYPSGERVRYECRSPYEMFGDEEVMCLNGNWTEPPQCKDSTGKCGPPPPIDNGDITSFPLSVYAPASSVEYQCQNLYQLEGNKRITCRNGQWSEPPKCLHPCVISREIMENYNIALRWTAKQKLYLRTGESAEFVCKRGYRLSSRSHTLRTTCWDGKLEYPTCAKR
Described as above. On the procedure:
as §1

Test [3] deals with T3, CFHR4-GS-Avi-GS-His8 (CFHR4 Variant B) (human).
T3 construct: Tagged recombinant protein from HEK293 cells; also called CFHR4B; recombinant CFHR4B
T3 chain: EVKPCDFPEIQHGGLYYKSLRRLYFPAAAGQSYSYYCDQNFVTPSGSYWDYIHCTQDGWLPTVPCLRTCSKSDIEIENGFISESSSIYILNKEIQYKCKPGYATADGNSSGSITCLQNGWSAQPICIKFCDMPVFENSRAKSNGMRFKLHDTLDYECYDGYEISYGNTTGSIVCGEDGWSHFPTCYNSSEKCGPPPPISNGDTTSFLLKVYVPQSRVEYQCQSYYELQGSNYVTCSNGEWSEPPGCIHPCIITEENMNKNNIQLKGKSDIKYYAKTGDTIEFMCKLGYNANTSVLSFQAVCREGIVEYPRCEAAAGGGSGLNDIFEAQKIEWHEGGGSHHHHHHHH
As to the kind of experiment: SPR (BiaCore), antibody captured by rabbit anti-mouse IgG on CM5 chip; n.d. = not detectable. The procedure:
as §1

In a further test the target is T4, CFHR5-GS-Avi-GS-His8 (human, UniProt Q9BXR6 19-569).
T4 construct: Tagged recombinant protein from HEK293 cells; also called recombinant CFHR5
T4 sequence: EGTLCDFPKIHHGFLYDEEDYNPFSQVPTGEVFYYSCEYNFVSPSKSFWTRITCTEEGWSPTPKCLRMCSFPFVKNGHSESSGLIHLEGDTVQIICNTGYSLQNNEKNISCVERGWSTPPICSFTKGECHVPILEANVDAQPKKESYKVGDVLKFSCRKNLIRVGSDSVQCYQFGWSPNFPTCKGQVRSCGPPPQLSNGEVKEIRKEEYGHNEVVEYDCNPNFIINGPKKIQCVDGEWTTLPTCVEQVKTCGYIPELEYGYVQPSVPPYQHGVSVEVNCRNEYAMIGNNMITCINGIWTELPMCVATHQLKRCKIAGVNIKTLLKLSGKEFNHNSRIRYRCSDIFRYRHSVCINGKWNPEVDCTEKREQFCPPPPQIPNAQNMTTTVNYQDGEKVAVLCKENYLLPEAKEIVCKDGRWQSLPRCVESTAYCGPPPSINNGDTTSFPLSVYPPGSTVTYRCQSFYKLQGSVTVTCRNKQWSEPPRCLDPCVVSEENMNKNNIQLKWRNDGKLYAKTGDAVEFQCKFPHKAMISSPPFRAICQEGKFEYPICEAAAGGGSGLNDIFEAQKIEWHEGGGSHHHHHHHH
The test is described as above. The procedure: as §1

The next test addresses T5, CFHL1-GS-Avi-GS-His8 (human, UniProt P08603 19-445).
T5 construct: also called complement factor H isoform 2
The description is as above. The procedure: as §1

The target in test [4] is T6, native human complement factor H (CFH) (human, UniProt P08603 19-1231).
T6 construct: Native CFH; also called native CFH; serum-purified CFH
Described as above. On the procedure: as §1

The target of a further test is T7, CFHR3-GS-Avi-GS-His8 (human, UniProt Q02985 19-330).
T7 construct: Tagged recombinant protein from HEK293 cells; also called recombinant CFHR3
T7 sequence: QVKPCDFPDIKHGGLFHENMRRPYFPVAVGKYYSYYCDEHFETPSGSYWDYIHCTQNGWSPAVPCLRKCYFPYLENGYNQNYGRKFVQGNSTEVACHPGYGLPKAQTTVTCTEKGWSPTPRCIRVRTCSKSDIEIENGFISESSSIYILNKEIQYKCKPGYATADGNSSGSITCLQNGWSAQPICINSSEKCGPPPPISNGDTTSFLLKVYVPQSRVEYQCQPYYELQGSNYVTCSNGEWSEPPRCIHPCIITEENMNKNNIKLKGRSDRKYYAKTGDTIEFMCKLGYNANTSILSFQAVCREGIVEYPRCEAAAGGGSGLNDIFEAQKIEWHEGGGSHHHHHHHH
The description is as above. On the procedure: as §1

In test [5] the target is T6, native human complement factor H (CFH). As to the kind of experiment: indirect ELISA, hybridoma supernatant on CFH captured by biotinylated L20/3 Fab on streptavidin plates. On the procedure: (§2) MAb production in hybridoma culture supernatants was assayed by indirect enzyme-linked immunosorbent assay (ELISA). Streptavidin coated microtiter plates (Microcoat, Bernried, Germany) were incubated with biotinylated Fab fragment of the MAB<CFH/CFHR1>M-L20/3 monoclonal antibody diluted 1:2000 in incubation buffer (phosphate buffered saline pH 7.3, 0.5% Byco C) for 1 h at room temperature. After washing with washing buffer (0.9% NaCl solution, 0.05% Tween 20) the microtiter plates were incubated for 1 h at room temperature with 100 ng/ml purified recombinant CFHR1 and CFH protein diluted in incubation buffer. The microtiter plates were washed again and hybridoma supernatants were added to the coated well and incubated for 1 h at room temperature. After washing, the bound monoclonal antibodies (MAbs) were detected by a 1 h incubation with goat anti-mouse IgG peroxidase conjugate (Calbiochem, Germany) diluted 1:5000 in incubation buffer followed by substrate reaction with ABTS solution (Roche, Germany) after further washing step. The color change was measured in an ELISA reader at 405/490 nm after 20-30 min. Some CFHR1-specific clones without any crossreactivity against CFH were selected.
In general terms: In an ELISA, binding on a coated surface is turned into a signal by an enzyme label.

In test [6] the target is T1, CFHR2-GS-Avi-GS-His8. In words: sandwich ECLIA, L20/3 Fab-Bi capture + 4.2.74-Ru detection (signal needs both antibodies); sample 50 µg/ml recombinant CFHR2.
Test [7] has as its target T1, CFHR2-GS-Avi-GS-His8. In words: sandwich ECLIA, L20/3 Fab-Bi capture + 4.2.74-Ru detection (signal needs both antibodies); sample 100 µg/ml recombinant CFHR2.
For test [8], the target named is T2, recombinant CFHR1-1-5 (tag-less, …). In words: indirect ELISA, hybridoma supernatant on CFHR1 captured by biotinylated L20/3 Fab on streptavidin plates. The procedure: as §2
Test [9] concerns the target T1, CFHR2-GS-Avi-GS-His8. As to the kind of experiment: sandwich ECLIA, L20/3 Fab-Bi capture + 5.3.23-Ru detection (signal needs both antibodies); sample 50 µg/ml recombinant CFHR2.
Test [10] deals with T1, CFHR2-GS-Avi-GS-His8. In words: sandwich ECLIA, L20/3 Fab-Bi capture + 5.3.23-Ru detection (signal needs both antibodies); sample 100 µg/ml recombinant CFHR2.
Test [11] deals with T1, CFHR2-GS-Avi-GS-His8. As to the kind of experiment: sandwich ECLIA, L20/3 Fab-Bi capture + 4.2.53-Ru detection (signal needs both antibodies); sample 50 µg/ml recombinant CFHR2.
The target of test [12] is T1, CFHR2-GS-Avi-GS-His8. As to the kind of experiment: sandwich ECLIA, L20/3 Fab-Bi capture + 4.2.53-Ru detection (signal needs both antibodies); sample 100 µg/ml recombinant CFHR2.

B1: MAB<CFHR1>M-5.1.5 (antibody, V domains shown)
VH: EVQLVESGGDLVKPGGSLKLSCAASGFTFSSYDMSWVRQTPDKRLEWVATISSGGSNTYYPDSVKGRFTISRDNAKNTLYLQMSSLKSEDTAMYYCARQGYYYGSSYYAMDYWGQGTSVTVSS
VL: QIVLTQSPAIMSASPGEKVTMTCRASSSVSSSYLHWYQQKPGSSPKLWIYITSSLASGVPARFSGSGSGTSYSLTISSVEAEDGATYYCQQYHSSPYTFGSGTKLEIK
modifications: In the ECLIA sandwich assays the IgG was ruthenylated (Ru-(bpy)2-bpyCO-OSu). The BiaCore results used purified antibody with no label mentioned.
notes: It was used ruthenylated (-Ru) in the sandwich ECLIA; also called clone 5.1.5; MAK<CFHR1>M-5.1.5; copies: 2 + 2
What is called Kd is the equilibrium constant for the complex coming apart. As to B1, the Kd with CFHR2-GS-Avi-GS-His8 [1] worked out at 0.3 nM; in test [2], 0.01 nM. Further, the binding result (in [3]; with CFHR5-GS-Avi-GS-His8; with CFHL1-GS-Avi-GS-His8; in test [4]; with CFHR3-GS-Avi-GS-His8) was “no binding” in each case.

B2: MAB<CFHR1>M-4.2.74 (antibody, V domains shown)
VH: DVRLVESGGGLVQPGGSRKLSCAASGFTFSSFGMHWVRQAPEKGLEWVAYISSGSSTIYYADTVKGRFTISRDNPKNTLFLQMTSLRSEDTAMYYCARWGNSYAMDYWGQGTSVTVSS
VL: DIVMTQSPSSLTVTAGEKVTMSCKSSQSLLNRGNQKNYLTWYQQKPGQPPKLLIYWASTRESGVPDRFTGSGSGTDFTLTISSVLAEDLAVYYCQIAYSSPFTFGSGTKLEIKR
notes: In-house mouse monoclonal IgG; also called MAB<CFHR1>M-4.2.74-Ru
For the molecule B2, the binding result was “no binding (tested: 100 ng/ml CFH)” in test [5] and “binds” in test [8]. Besides, the Measured CFHR1 with CFHR2-GS-Avi-GS-His8 [6] and with CFHR2-GS-Avi-GS-His8 [7] was 0 µg/mL each time.

B3: MAB<CFHR1>M-5.3.23 (antibody, V domains shown)
VH: EVKLEESGGGLVQPGGSMKLSCDGSGFTFSDAWMGWVRQSPEKGLEWVSEIRNRANNHETHYAESVKGRFTISRDDSKSRVYLQMNSLRAEDTGIYYCNGRYYDSYWFLDVWGAGTTVTVSS
VL: NIVMTQTPKFLPVSVGDRVTMTCKASQSVGYNVAWFQQKPGQSPKLLIYYASNRYTGVPDRFTGSGGGTDFTFTISSVQVEDLAVYFCQQHYISPTFGSGTKLEIKR
notes: In-house mouse monoclonal IgG; also called MAB<CFHR1>M-5.3.23-Ru
Consider B3, for which the binding result is “no binding (tested: 100 ng/ml CFH)” in test [5] and “binds” in test [8]. Moreover, the Measured CFHR1 in the test with CFHR2-GS-Avi-GS-His8 [9] and with CFHR2-GS-Avi-GS-His8 [10] was 0 µg/mL in each case.

B4: MAB<CFHR1>M-4.1.3 (antibody, V domains shown)
VH: DVQLQESGPGLVKPSQSLSLTCTVTGYSITSEYAWNWIRQFPGNKLEWMAYINSSGKSSYNPSLKSRISVTRDTSKNQFFLQLNSVTTEDTATYYCAREGYGNYPAWFAYWGQGTLVTVSA
VL: DIQMTQTTSSLSASLGDRVTISCSASQDINNYLNWYQQKPDGTVKLLIYYTSNLHSGVPSRFSGSGSGTDYSLTISNLEPEDIATYFCQQYSKLPRTFGGGTKLEIKR
notes: In-house mouse monoclonal IgG; also called MAB<CFHR1>M-4.1.3-Ru
Consider B4, for which the Kd in the test with CFHR2-GS-Avi-GS-His8 [1] came out at 19 nM; in test [2], 0.8 nM. Further, the binding result (in [3]; in the test with CFHR5-GS-Avi-GS-His8; in the test with CFHL1-GS-Avi-GS-His8; in [4]; in the test with CFHR3-GS-Avi-GS-His8) was “no binding” each time.

B5: MAB<CFHR1>M-4.2.53 (antibody, V domains shown)
VH: QVQLKESGPGLVAPSQSLSITCTVSGFSLTSYGVHWVRQPPGKGLEWLGVIWAGGNTDYISALMSRLSISKDNSKSQVFLKINRLQTDDTAVYYCARDHYDGYYMEYWGQGTSVTVSP
VL: DIQMTQSPSSLSASLGGKVTITCKASQDINKYLAWYQHKPGKGPRLLIHYTFTLQPGIPSRFSGGGSGRDYSFNINNLEPEDIATYYCLQYDNLYTFGGGTKLEIKR
notes: In-house mouse monoclonal IgG; also called MAB<CFHR1>M-4.2.53-Ru
For B5, the values for the binding result in test [5] and in test [8] were “no binding (tested: 100 ng/ml CFH)” and “binds”, respectively. In addition, the Measured CFHR1 with CFHR2-GS-Avi-GS-His8 [11] was found to be 0 µg/mL; in the test with CFHR2-GS-Avi-GS-His8 [12], 0.09 µg/mL.
